In US20240327523A1 (University of California, published 2024):

T1: Fc-CD94 (biotinylated Fc fusion protein with the extracellular domain of human CD94 fused at the C-terminal … (human, UniProt Q13241 32-179, biotinylated on the biotin-acceptor-tag (~90% biotinylation)))
T1 chain: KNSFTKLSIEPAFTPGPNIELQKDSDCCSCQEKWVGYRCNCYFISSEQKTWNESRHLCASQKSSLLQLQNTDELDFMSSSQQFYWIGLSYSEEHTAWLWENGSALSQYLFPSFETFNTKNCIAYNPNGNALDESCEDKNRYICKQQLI

T2: Fc-CD94 (biotinylated Fc fusion protein with the extracellular domain of human CD94 fused at the C-terminal … (human, UniProt Q13241 32-179, biotinylated on the biotin-acceptor-tag (~90% biotinylation)))
T2 construct: extracellular domain; Expressed in Expi293 cells; also called CD94 Fc fusion protein; Fc-CD94 fusion protein; not shown: biotin-acceptor-tag at the N-terminus; human IgG1 Fc; TEV proteolysis site between the ECD and Fc-domain
T2 sequence (looked up): T1 chain

T3: human CD94 expressed on Ba/F3 cells (human, UniProt Q13241 1-179)
T3 construct: whole, on cells; Mouse Ba/F3 cells stably transduced with a retroviral vector encoding human CD94; also called Ba/F3 transfectants expressing human CD94
T3 sequence (looked up): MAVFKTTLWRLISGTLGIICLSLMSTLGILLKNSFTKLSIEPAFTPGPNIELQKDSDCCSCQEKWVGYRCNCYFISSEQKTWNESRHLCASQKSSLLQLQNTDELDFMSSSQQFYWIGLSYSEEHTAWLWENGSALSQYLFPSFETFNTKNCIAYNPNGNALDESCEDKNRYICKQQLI

B1: JLS002-rAB23 Fab (Fab, V domains shown)
VH: EVQLVESGGGLVQPGGSLRLSCAASGFNVYSSSIHWVRQAPGKGLEWVASISSYSGSTSYADSVKGRFTISADTSKNTAYLQMNSLRAEDTAVYYCARYGYYMSGAMDYWGQGTLVTVSS
VL: DIQMTQSPSSLSASVGDRVTITCRASQSVSSAVAWYQQKPGKAPKLLIYSASSLYSGVPSRFSGSRSGTDFTLTISSLQPEDFATYYCQQKKAYSLITFGQGTKVEIK
notes: Fab expressed and purified after phage selection
B2: JLS002-rAB23 IgG (antibody, V domains shown)
VH: B1 VH
VL: B1 VL
notes: also called JSI002 rab 23
B3: JLS002-rAB22 Fab (Fab, V domains shown)
VH: EVQLVESGGGLVQPGGSLRLSCAASGFNVYSSSIHWVRQAPGKGLEWVAYISSYSGYTYYADSVKGRFTISADTSKNTAYLQMNSLRAEDTAVYYCARGRYQGMDYWGQGTLVTVSS
VL: DIQMTQSPSSLSASVGDRVTITCRASQSVSSAVAWYQQKPGKAPKLLIYSASSLYSGVPSRFSGSRSGTDFTLTISSLQPEDFATYYCQQYAYHLITFGQGTKVEIK
notes: as for B1
B4: JLS002-rAB22 IgG (antibody, V domains shown)
VH: B3 VH
VL: B3 VL
notes: also called rab22 JIS002 rab 22

How the values were obtained:
[1] = molecular target: T1, Fc-CD94 (biotinylated Fc fusion protein …); assay: ELISA
[2] = molecular target: T2, Fc-CD94 (biotinylated Fc fusion protein …); assay: multipoint ELISA of purified Fab
[3] = molecular target: T3, human CD94 expressed on Ba/F3 cells; assay: flow cytometry staining of Ba/F3 transfectants, PE-conjugated anti-human IgG1
Procedure: Mouse Ba/F3 cells were stably transduced with retroviral vectors encoding human CD94 or with human CD94, human NKG2C, and human DAP12 as described in Lanier, L. L., B. C. Corliss, J. Wu, and J. H. Phillips. 1998. Association of DAP12 with activating CD94/NKG2C NK cell receptors. Immunity 8:693-701. PMID: 9655483. The Ba/F3 transfectants were incubated with phosphate buffered saline (unstained) or with the rab22 JIS002 rab 22 or JSI002 rab 23 antibodies, washed, and then stained with PE-conjugated anti-human IgG1 using standard methods.

[4] = molecular target: T2, Fc-CD94 (biotinylated Fc fusion protein …); assay: assay not given; IgG affinity was measured by Octet BLI on immobilized Fc-CD94 (FIG. 3)
Procedure: An octet assay was used to measure the affinity of IgG for the two binders JLS002-rAB22 and JLS002-rAB23. An Octet RED384 (ForteBio) instrument was used to measure the affinity of IgG for the two binders, JLS002-rAB22 and JLS002-rAB23. Fc-CD94 fusion protein was immobilized on a bio-layer interfrometry biosensor coated with streptavidin.
After blocking with PBST buffer (PBS+[…]) containing 10 μM of biotin, the IgGs being tested were loaded for 15 minutes followed by change to PBST buffer without IgG for ˜30 minutes. The kinetic binding curve was recorded.

[5] = molecular target: T1, Fc-CD94 (biotinylated Fc fusion protein …); assay: BLI (Octet)

Binder	EC50 [1] [nM]	binding result [2]	binding result [3]	binding result [4]	Kd [5] [nM]
B1	2.98	binds			
B2			binds	binds	0.94
B3	3.42	binds			
B4			binds	binds	1.74
